Laboratory results from patent US20240132578A1.

Assays:
[1] = biological target: HIV-1 Env of isolate 92WR021 (pseudovirus) (HIV-1); experiment: cell-based or functional assay
[2] = biological target: HIV-1 92RW020 Env (HIV-1); experiment: cell-based or functional assay
[3] = biological target: HIV-1 Env of isolate 92UG031 (pseudovirus) (HIV-1); experiment: cell-based or functional assay
[4] = biological target: HIV-1 Env of isolate 93UG077 (pseudovirus) (HIV-1); experiment: cell-based or functional assay
[5] = biological target: HIV-1 Env of isolate 93WR029 (pseudovirus) (HIV-1); experiment: cell-based or functional assay
[6] = biological target: HIV-1 Env of pseudovirus isolate APV-13 (clade B) (HIV-1); experiment: cell-based or functional assay
[7] = biological target: HIV-1 Env of pseudovirus isolate 6535.3 (clade B) (HIV-1); experiment: cell-based or functional assay
[8] = biological target: HIV-1 Env of isolate 92UG037 (pseudovirus) (HIV-1); experiment: cell-based or functional assay
[9] = biological target: HIV-1 Env of isolate 94UG103 (pseudovirus) (HIV-1); experiment: cell-based or functional assay
[10] = biological target: HIV-1 Env of isolate MGRM-AE-005 (pseudovirus) (HIV-1); experiment: cell-based or functional assay
[11] = biological target: HIV-1 Env of isolate 92WR024 (pseudovirus) (HIV-1); experiment: cell-based or functional assay
[12] = biological target: HIV-1 Env of pseudovirus isolate MGRM-Chronic-B-001 (clade B) (HIV-1); experiment: cell-based or functional assay
[13] = biological target: HIV-1 Env of isolate 92WR020 (pseudovirus) (HIV-1); experiment: cell-based or functional assay
[14] = biological target: HIV-1 Env of isolate MGRM-AE-004 (pseudovirus) (HIV-1); experiment: cell-based or functional assay
[15] = biological target: HIV-1 Env of isolate MGRM-AE-006 (pseudovirus) (HIV-1); experiment: cell-based or functional assay
[16] = biological target: HIV-1 Env of isolate MGRM-Chronic-B-018 (HIV-1); experiment: cell-based or functional assay
[17] = biological target: HIV-1 Env of isolate THR0.18 (HIV-1); experiment: cell-based or functional assay
[18] = biological target: HIV-1 Env of isolate SC422661.8 (HIV-1); experiment: cell-based or functional assay
[19] = biological target: HIV-1 Env of isolate MGRM-Chronic-B-024 (HIV-1); experiment: cell-based or functional assay
[20] = biological target: HIV-1 Env of isolate 93IN905 (HIV-1); experiment: cell-based or functional assay
[21] = biological target: HIV-1 Env of isolate MGRM-Chronic-B-020 (HIV-1); experiment: cell-based or functional assay
[22] = biological target: HIV-1 Env of isolate TRO.11 (HIV-1); experiment: cell-based or functional assay
[23] = biological target: HIV-1 Env of isolate PVO.4 (HIV-1); experiment: cell-based or functional assay
[24] = biological target: HIV-1 Env of isolate JRCSF (HIV-1) (UniProt P20871); experiment: cell-based or functional assay
[25] = biological target: HIV-1 Env of isolate 93MW959 (HIV-1); experiment: cell-based or functional assay
[26] = biological target: HIV-1 Env of isolate 98IN022 (HIV-1); experiment: cell-based or functional assay
[27] = biological target: HIV-1 Env of isolate MGRM-Chronic-B-023 (HIV-1); experiment: cell-based or functional assay
[28] = biological target: HIV-1 Env of isolate MGRM-A-002 (pseudovirus) (HIV-1); experiment: cell-based or functional assay
[29] = biological target: HIV-1 Env of isolate MGRM-Chronic-B-011 (HIV-1); experiment: cell-based or functional assay
[30] = biological target: HIV-1 Env of isolate MGRM-Chronic-B-010 (HIV-1); experiment: cell-based or functional assay
[31] = biological target: HIV-1 Env of isolate 97ZA012 (HIV-1); experiment: cell-based or functional assay
[32] = biological target: HIV-1 Env of isolate MGRM-Chronic-B-012 (HIV-1); experiment: cell-based or functional assay
[33] = biological target: HIV-1 Env of isolate TRJ04551.58 (HIV-1); experiment: cell-based or functional assay
[34] = biological target: HIV-1 Env of isolate QH0692.42 (HIV-1); experiment: cell-based or functional assay
[35] = biological target: HIV-1 Env of pseudovirus isolate MGRM-C-024 (clade C) (HIV-1); experiment: cell-based or functional assay
[36] = biological target: HIV-1 Env of isolate VLGCB3 (HIV-1); experiment: cell-based or functional assay
[37] = biological target: HIV-1 Env of isolate SF162 (HIV-1) (UniProt P19550); experiment: cell-based or functional assay
[38] = biological target: HIV-1 Env of isolate MGRM-Chronic-B-017 (HIV-1); experiment: cell-based or functional assay
[39] = biological target: HIV-1 Env of isolate NL43 (HIV-1); experiment: cell-based or functional assay
[40] = biological target: WT JR-FL gp120 (HIV-1 JR-FL); experiment: ELISA, antigen-coated wells, mAb titrated; EC50 by nonlinear regression
[41] = biological target: JR-FL gp120 ΔV1/ΔV2 (HIV-1 JR-FL); experiment: as above

Sequence of 4995_E20 (PGT-142) (antibody) (VH): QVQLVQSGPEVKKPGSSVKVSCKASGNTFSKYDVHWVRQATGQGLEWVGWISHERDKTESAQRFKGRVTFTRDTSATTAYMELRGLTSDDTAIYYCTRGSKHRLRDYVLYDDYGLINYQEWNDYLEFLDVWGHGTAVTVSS
Sequence of 4995_E20 (PGT-142) (antibody) (VL): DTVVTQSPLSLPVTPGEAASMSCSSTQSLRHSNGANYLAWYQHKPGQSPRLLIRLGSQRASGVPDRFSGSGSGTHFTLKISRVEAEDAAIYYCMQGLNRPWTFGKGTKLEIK
Sequence of 4995_P16 (PGT-145) (antibody) (VH): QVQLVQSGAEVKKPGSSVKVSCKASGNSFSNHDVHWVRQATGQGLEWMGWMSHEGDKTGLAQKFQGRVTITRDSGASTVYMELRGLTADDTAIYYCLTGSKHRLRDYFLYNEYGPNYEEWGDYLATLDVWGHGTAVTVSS
Sequence of 4995_P16 (PGT-145) (antibody) (VL): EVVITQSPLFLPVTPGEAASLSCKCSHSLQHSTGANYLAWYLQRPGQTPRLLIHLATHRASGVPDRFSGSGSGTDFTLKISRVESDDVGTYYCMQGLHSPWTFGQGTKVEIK
Sequence of 4993_K13 (PGT-141) (antibody) (VH): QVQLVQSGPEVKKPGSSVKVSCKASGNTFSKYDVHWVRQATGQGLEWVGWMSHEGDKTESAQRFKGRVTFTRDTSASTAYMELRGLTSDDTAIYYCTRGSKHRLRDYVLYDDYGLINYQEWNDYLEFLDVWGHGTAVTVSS

Substance: 4993_K13 (PGT-141) (antibody)
- IC50 (µg/mL), single-round pseudovirus neutralization [1]: > 50 µg/mL
- IC50, pseudovirus neutralization [2]: > 10 µg/mL
- IC50 (µg/mL), single-round pseudovirus neutralization [3]: 0.093 µg/mL
- IC50 (µg/mL), single-round pseudovirus neutralization [4]: > 50 µg/mL
- IC50 (µg/mL), single-round pseudovirus neutralization [5]: 0.019 µg/mL
- IC50, pseudovirus neutralization [6]: > 50 µg/mL
- IC50, pseudovirus neutralization [7]: > 50 µg/mL
- IC50 (µg/mL), single-round pseudovirus neutralization [8]: 1.28 µg/mL
- IC50 (µg/mL), single-round pseudovirus neutralization [9]: > 50 µg/mL
- IC50 (µg/mL), single-round pseudovirus neutralization [10]: > 50 µg/mL
- IC50 (µg/mL), single-round pseudovirus neutralization [11]: 0.175 µg/mL
- IC50, pseudovirus neutralization [12]: > 50 µg/mL
- IC50 (µg/mL), single-round pseudovirus neutralization [13]: > 50 µg/mL
- IC50 (µg/mL), single-round pseudovirus neutralization [14]: > 50 µg/mL
- IC50 (µg/mL), single-round pseudovirus neutralization [15]: > 50 µg/mL

Substance: 4995_E20 (PGT-142) (antibody)
- IC50 (µg/mL), single-round pseudovirus neutralization [1]: > 50 µg/mL
- IC50, pseudovirus neutralization [2]: > 10 µg/mL
- IC50 (µg/mL), single-round pseudovirus neutralization [3]: 0.05 µg/mL
- IC50 (µg/mL), single-round pseudovirus neutralization [4]: > 50 µg/mL
- IC50 (µg/mL), single-round pseudovirus neutralization [5]: 0.014 µg/mL
- IC50, pseudovirus neutralization [6]: > 50 µg/mL
- IC50, pseudovirus neutralization [7]: > 50 µg/mL
- IC50 (µg/mL), single-round pseudovirus neutralization [8]: 0.557 µg/mL
- IC50 (µg/mL), single-round pseudovirus neutralization [9]: > 50 µg/mL
- IC50 (µg/mL), single-round pseudovirus neutralization [10]: > 50 µg/mL
- IC50 (µg/mL), single-round pseudovirus neutralization [11]: 0.069 µg/mL
- IC50, pseudovirus neutralization [12]: > 50 µg/mL
- IC50 (µg/mL), single-round pseudovirus neutralization [13]: 31.5 µg/mL
- IC50 (µg/mL), single-round pseudovirus neutralization [14]: 0.001 µg/mL
- IC50 (µg/mL), single-round pseudovirus neutralization [15]: > 50 µg/mL

Substance: 4995_P16 (PGT-145) (antibody)
- IC50 (µg/mL), single-round pseudovirus neutralization [1]: 1.62 µg/mL
- IC50 (µg/mL), single-round pseudovirus neutralization [3]: 3.22 µg/mL
- IC50 (µg/mL), single-round pseudovirus neutralization [4]: > 50 µg/mL
- IC50 (µg/mL), single-round pseudovirus neutralization [5]: > 50 µg/mL
- IC50, pseudovirus neutralization [6]: 0.337 µg/mL
- IC50, pseudovirus neutralization [7]: > 50 µg/mL
- IC50 (µg/mL), single-round pseudovirus neutralization [8]: 3.15 µg/mL
- IC50 (µg/mL), single-round pseudovirus neutralization [9]: 0.331 µg/mL
- IC50 (µg/mL), single-round pseudovirus neutralization [10]: 0.967 µg/mL
- IC50 (µg/mL), single-round pseudovirus neutralization [11]: 0.069 µg/mL
- IC50, pseudovirus neutralization [12]: 3.22 µg/mL
- IC50 (µg/mL), single-round pseudovirus neutralization [13]: 0.997 µg/mL
- IC50 (µg/mL), single-round pseudovirus neutralization [14]: 0.006 µg/mL
- IC50 (µg/mL), single-round pseudovirus neutralization [15]: > 50 µg/mL

Substance: 5343_B08 (PGT-135) (antibody)
- IC50 (µg/mL), pseudovirus neutralization [16]: > 50 µg/mL
- IC50 (µg/mL), pseudovirus neutralization [1]: > 50 µg/mL
- IC50, pseudovirus neutralization [2]: 0.157 µg/mL
- IC50 (µg/mL), pseudovirus neutralization [3]: > 50 µg/mL
- IC50 (µg/mL), pseudovirus neutralization [17]: > 50 µg/mL
- IC50 (µg/mL), pseudovirus neutralization [18]: 21.8 µg/mL
- IC50 (µg/mL), pseudovirus neutralization [4]: > 50 µg/mL
- IC50 (µg/mL), pseudovirus neutralization [19]: > 50 µg/mL
- IC50 (µg/mL), pseudovirus neutralization [20]: 0.011 µg/mL
- IC50 (µg/mL), pseudovirus neutralization [21]: 0.057 µg/mL
- IC50 (µg/mL), pseudovirus neutralization [22]: 0.03 µg/mL
- IC50 (µg/mL), pseudovirus neutralization [5]: > 50 µg/mL
- IC50 (µg/mL), pseudovirus neutralization [23]: > 50 µg/mL
- IC50 (µg/mL), pseudovirus neutralization [24]: 0.131 µg/mL
- IC50 (µg/mL), pseudovirus neutralization [25]: > 50 µg/mL
- IC50 (µg/mL), pseudovirus neutralization [8]: 3.67 µg/mL
- IC50 (µg/mL), pseudovirus neutralization [26]: 0.014 µg/mL
- IC50 (µg/mL), pseudovirus neutralization [27]: 0.329 µg/mL
- IC50 (µg/mL), pseudovirus neutralization [28]: > 50 µg/mL
- IC50 (µg/mL), pseudovirus neutralization [29]: > 50 µg/mL
- IC50 (µg/mL), pseudovirus neutralization [9]: > 50 µg/mL
- IC50 (µg/mL), pseudovirus neutralization [30]: > 50 µg/mL
- IC50 (µg/mL), pseudovirus neutralization [31]: > 50 µg/mL
- IC50 (µg/mL), pseudovirus neutralization [11]: > 50 µg/mL
- IC50 (µg/mL), pseudovirus neutralization [32]: 0.166 µg/mL
- IC50 (µg/mL), pseudovirus neutralization [13]: 0.067 µg/mL
- IC50 (µg/mL), pseudovirus neutralization [33]: > 50 µg/mL
- IC50 (µg/mL), pseudovirus neutralization [34]: > 50 µg/mL
- IC50, pseudovirus neutralization [35]: > 50 µg/mL
- IC50 (µg/mL), pseudovirus neutralization [36]: 0.142 µg/mL
- IC50 (µg/mL), pseudovirus neutralization [37]: 0.023 µg/mL
- IC50 (µg/mL), pseudovirus neutralization [38]: > 50 µg/mL
- IC50 (µg/mL), pseudovirus neutralization [39]: 8.03 µg/mL
- EC50 [40]: 0.1 µg/mL
- EC50 [41]: 0.1 µg/mL

Substance: VRC01 (antibody)
- IC50, pseudovirus neutralization [16]: 0.328 µg/mL
- IC50 (µg/mL), single-round pseudovirus neutralization [1]: 0.066 µg/mL
- IC50 (µg/mL), single-round pseudovirus neutralization [3]: 0.469 µg/mL
- IC50, pseudovirus neutralization [17]: 2.46 µg/mL
- IC50, pseudovirus neutralization [18]: 0.179 µg/mL
- IC50 (µg/mL), single-round pseudovirus neutralization [4]: 0.097 µg/mL
- IC50, pseudovirus neutralization [19]: 0.377 µg/mL
- IC50, pseudovirus neutralization [20]: 0.138 µg/mL
- IC50, pseudovirus neutralization [21]: 0.424 µg/mL
- IC50, pseudovirus neutralization [22]: 0.186 µg/mL
- IC50 (µg/mL), single-round pseudovirus neutralization [5]: 1.57 µg/mL
- IC50, pseudovirus neutralization [23]: 0.218 µg/mL
- IC50, pseudovirus neutralization [6]: 0.657 µg/mL
- IC50, pseudovirus neutralization [24]: 0.164 µg/mL
- IC50, pseudovirus neutralization [25]: 0.053 µg/mL
- IC50, pseudovirus neutralization [7]: 1.75 µg/mL
- IC50 (µg/mL), single-round pseudovirus neutralization [8]: 0.245 µg/mL
- IC50, pseudovirus neutralization [26]: 0.342 µg/mL
- IC50, pseudovirus neutralization [27]: 0.275 µg/mL
- IC50, pseudovirus neutralization [29]: 0.587 µg/mL
- IC50 (µg/mL), single-round pseudovirus neutralization [9]: 0.285 µg/mL
- IC50, pseudovirus neutralization [30]: 0.156 µg/mL
- IC50, pseudovirus neutralization [31]: 0.088 µg/mL
- IC50 (µg/mL), single-round pseudovirus neutralization [10]: 0.029 µg/mL
- IC50 (µg/mL), single-round pseudovirus neutralization [11]: 0.327 µg/mL
- IC50, pseudovirus neutralization [12]: 0.066 µg/mL
- IC50, pseudovirus neutralization [32]: 1.03 µg/mL
- IC50 (µg/mL), single-round pseudovirus neutralization [13]: 0.13 µg/mL
- IC50 (µg/mL), single-round pseudovirus neutralization [14]: 0.187 µg/mL
- IC50, pseudovirus neutralization [33]: 0.06 µg/mL
- IC50, pseudovirus neutralization [34]: 1.19 µg/mL
- IC50 (µg/mL), single-round pseudovirus neutralization [15]: 4.65 µg/mL
- IC50, pseudovirus neutralization [36]: 0.108 µg/mL
- IC50, pseudovirus neutralization [37]: 0.421 µg/mL
- IC50, pseudovirus neutralization [38]: 0.141 µg/mL
- IC50, pseudovirus neutralization [39]: 0.1 µg/mL
